Experimental data published in patent US20240132589A1 (ONCORESPONSE, published 2024).

Columns and labels:
Test in all cases: flow cytometry, transiently transfected HEK293-6E cells
[1] = molecular target: T1, Human LILRB2 on transiently transfected HEK293-6E cells (human, UniProt Q8N423 22-597)
T1 construct: whole, on cells; also called hLILRB2
Method: (§1) To determine that the anti-LILRB2 antibodies specifically bind to LILRB2 and not other LILRB and LILRA family members, a cross-reactivity assay was performed. Cross-reactivity of the LILRB2 antibodies to other LILRB proteins was assessed by antibody binding to transiently transfected HEK293-6E cells, measured by flow cytometry. Binding was evaluated to HEK293-6E cells transiently transfected with human LILRB-1, -2, -3, -4, and 5 plasmids (Origene, Nos. RC219949, RC217935, RC211228, RC220932, RC206516) or to cells transiently transfected with human LILRA-1, -2, -4, -5, and -6 plasmids (Origene, Nos. RC210808, RC205626, RC220452, RC212310 RC212965). […] Murine primary antibodies to LILRA and LILRB targets and corresponding isotype controls were used to confirm specific binding of all targets tested (R&D Systems) while an AF647 F(ab′)₂ fragment goat anti-mouse antibody (Jackson ImmunoResearch, No. 115-606-062) was used for the detection of bound positive control antibodies. No binding of B2A-IgG4 or B2A-IgG1 to LILRB-1, -3, -4, or -5 was observed, and no binding of either antibody to LILRA-1, -2, -4, -5, or -6 was observed, confirming specificity of these antibodies.

[2] = molecular target: T2, Human LILRB5 on transiently transfected HEK293-6E cells (human, UniProt O75023 24-590)
T2 construct: whole, on cells; also called hLILRB5

[3] = molecular target: T3, Human LILRB1 on transiently transfected HEK293-6E cells (human, UniProt Q8NHL6 24-650)
T3 construct: whole, on cells; also called hLILRB1

[4] = molecular target: T4, Human LILRA5 on transiently transfected HEK293-6E cells (human, UniProt A6NI73 42-299)
T4 construct: whole, on cells; also called hLILRA5

[5] = molecular target: T5, Human LILRA1 on transiently transfected HEK293-6E cells (human, UniProt O75019 17-489)
T5 construct: whole, on cells; also called hLILRA1

[6] = molecular target: T6, Human LILRB3 on transiently transfected HEK293-6E cells (human, UniProt O75022 24-631)
T6 construct: whole, on cells; also called hLILRB3

[7] = molecular target: T7, Human LILRA6 on transiently transfected HEK293-6E cells (human, UniProt Q6PI73 24-481)
T7 construct: whole, on cells; also called hLILRA6

[8] = molecular target: T8, Human LILRA4 on transiently transfected HEK293-6E cells (human, UniProt P59901 24-499)
T8 construct: whole, on cells; also called hLILRA4

[9] = molecular target: T9, Human LILRB4 on transiently transfected HEK293-6E cells (human, UniProt Q8NHJ6 22-448)
T9 construct: whole, on cells; also called hLILRB4

[10] = molecular target: T10, Human LILRA2 on transiently transfected HEK293-6E cells (human, UniProt Q8N149 24-483)
T10 construct: whole, on cells; also called hLILRA2

[11] = molecular target: T2, Human LILRB5 on transiently transfected …; remark: listed apart in the source
Method: as §1
(§2) Select humanized variant antibodies were tested for their ability to bind other LILRB or LILRA family members, using the method and commercially available positive control antibodies of Example 5.

[12] = molecular target: T3, Human LILRB1 on transiently transfected …; remark: listed apart in the source
Method: as §1, §2

[13] = molecular target: T4, Human LILRA5 on transiently transfected …; remark: listed apart in the source
Method: as §1, §2

[14] = molecular target: T5, Human LILRA1 on transiently transfected …; remark: listed apart in the source
Method: as §1, §2

[15] = molecular target: T1, Human LILRB2 on transiently transfected …; remark: listed apart in the source
Method: as §1, §2

[16] = molecular target: T6, Human LILRB3 on transiently transfected …; remark: listed apart in the source
Method: as §1, §2

[17] = molecular target: T7, Human LILRA6 on transiently transfected …; remark: listed apart in the source
Method: as §1, §2

[18] = molecular target: T8, Human LILRA4 on transiently transfected …; remark: listed apart in the source
Method: as §1, §2

[19] = molecular target: T9, Human LILRB4 on transiently transfected …; remark: listed apart in the source
Method: as §1, §2

[20] = molecular target: T10, Human LILRA2 on transiently transfected …; remark: listed apart in the source
Method: as §1, §2

T8 sequence (P59901 24-499): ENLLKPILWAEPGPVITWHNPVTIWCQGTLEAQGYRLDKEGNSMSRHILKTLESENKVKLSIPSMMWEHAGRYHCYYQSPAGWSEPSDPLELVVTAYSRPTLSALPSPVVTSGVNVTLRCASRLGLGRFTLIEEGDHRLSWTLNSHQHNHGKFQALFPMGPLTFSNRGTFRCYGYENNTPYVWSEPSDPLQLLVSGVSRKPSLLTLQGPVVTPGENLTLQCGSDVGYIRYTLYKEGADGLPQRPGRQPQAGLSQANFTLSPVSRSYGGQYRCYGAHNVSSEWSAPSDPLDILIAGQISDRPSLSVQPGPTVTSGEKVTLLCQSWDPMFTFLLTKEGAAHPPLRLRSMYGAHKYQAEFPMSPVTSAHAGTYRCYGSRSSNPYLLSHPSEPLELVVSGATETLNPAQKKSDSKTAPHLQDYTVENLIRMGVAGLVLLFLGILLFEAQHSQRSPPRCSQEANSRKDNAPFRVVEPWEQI
T2 sequence (O75023 24-590): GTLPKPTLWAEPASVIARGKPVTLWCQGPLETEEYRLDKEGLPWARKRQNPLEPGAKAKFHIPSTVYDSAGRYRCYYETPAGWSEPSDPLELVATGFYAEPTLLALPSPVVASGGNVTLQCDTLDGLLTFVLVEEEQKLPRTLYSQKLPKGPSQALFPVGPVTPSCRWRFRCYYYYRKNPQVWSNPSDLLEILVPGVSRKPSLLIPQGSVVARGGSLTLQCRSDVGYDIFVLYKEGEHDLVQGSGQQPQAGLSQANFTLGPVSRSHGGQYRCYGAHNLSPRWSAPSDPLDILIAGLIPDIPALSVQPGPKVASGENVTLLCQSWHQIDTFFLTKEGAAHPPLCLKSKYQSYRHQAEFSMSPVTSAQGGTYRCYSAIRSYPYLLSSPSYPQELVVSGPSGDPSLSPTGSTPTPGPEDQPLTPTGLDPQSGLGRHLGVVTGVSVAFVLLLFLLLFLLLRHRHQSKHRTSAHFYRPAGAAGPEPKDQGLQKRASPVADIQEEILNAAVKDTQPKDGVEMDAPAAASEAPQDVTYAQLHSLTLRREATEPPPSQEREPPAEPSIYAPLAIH
T1 sequence (Q8N423 22-597): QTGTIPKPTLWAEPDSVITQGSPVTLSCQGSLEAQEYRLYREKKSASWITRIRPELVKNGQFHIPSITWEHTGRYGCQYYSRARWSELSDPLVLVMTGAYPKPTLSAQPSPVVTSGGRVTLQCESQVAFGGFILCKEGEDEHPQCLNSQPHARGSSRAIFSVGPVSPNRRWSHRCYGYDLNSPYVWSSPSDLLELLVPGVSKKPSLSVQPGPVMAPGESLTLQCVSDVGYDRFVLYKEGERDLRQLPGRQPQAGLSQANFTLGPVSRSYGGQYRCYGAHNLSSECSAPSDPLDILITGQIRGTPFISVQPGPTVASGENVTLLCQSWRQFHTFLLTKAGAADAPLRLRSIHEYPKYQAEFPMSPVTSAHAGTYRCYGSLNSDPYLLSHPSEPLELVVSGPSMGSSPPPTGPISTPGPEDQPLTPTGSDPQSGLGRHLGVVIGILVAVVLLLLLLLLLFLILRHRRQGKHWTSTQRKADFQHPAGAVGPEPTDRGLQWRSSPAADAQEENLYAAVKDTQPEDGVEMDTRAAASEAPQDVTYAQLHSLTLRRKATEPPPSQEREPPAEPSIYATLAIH
T10 sequence (Q8N149 24-483): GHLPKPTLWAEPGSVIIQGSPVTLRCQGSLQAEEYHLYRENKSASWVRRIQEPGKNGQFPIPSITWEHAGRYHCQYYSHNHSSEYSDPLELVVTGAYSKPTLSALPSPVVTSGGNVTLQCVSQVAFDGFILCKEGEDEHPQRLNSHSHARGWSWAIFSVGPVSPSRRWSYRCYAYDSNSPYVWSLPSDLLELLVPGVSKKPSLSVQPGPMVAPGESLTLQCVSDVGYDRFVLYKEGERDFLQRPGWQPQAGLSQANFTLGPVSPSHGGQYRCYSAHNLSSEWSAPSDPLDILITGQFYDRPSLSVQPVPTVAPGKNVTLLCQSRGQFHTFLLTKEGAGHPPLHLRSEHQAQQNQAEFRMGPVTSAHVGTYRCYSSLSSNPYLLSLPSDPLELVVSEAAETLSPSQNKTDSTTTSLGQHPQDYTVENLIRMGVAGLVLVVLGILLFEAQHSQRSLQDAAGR
T5 sequence (O75019 17-489): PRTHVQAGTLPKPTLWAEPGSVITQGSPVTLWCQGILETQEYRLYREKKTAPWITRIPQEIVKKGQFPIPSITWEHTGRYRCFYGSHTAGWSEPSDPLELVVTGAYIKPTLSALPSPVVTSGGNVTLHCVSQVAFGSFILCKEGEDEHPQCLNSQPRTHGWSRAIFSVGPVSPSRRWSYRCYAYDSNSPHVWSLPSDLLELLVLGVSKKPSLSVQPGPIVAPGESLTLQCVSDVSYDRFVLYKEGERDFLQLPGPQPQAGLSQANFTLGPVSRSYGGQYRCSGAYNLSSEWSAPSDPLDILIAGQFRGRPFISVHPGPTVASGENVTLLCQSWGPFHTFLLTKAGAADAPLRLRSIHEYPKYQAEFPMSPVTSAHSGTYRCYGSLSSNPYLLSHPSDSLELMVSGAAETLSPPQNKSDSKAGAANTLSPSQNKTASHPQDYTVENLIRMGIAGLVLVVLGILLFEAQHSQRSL
T4 sequence (A6NI73 42-299): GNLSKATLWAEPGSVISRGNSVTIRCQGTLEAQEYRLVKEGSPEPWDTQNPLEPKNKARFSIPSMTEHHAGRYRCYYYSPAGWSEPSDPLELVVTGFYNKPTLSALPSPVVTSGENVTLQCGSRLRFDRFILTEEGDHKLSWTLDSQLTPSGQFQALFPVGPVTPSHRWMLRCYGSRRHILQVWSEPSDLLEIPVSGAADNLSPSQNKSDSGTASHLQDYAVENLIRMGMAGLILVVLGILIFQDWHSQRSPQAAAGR
T3 sequence (Q8NHL6 24-650): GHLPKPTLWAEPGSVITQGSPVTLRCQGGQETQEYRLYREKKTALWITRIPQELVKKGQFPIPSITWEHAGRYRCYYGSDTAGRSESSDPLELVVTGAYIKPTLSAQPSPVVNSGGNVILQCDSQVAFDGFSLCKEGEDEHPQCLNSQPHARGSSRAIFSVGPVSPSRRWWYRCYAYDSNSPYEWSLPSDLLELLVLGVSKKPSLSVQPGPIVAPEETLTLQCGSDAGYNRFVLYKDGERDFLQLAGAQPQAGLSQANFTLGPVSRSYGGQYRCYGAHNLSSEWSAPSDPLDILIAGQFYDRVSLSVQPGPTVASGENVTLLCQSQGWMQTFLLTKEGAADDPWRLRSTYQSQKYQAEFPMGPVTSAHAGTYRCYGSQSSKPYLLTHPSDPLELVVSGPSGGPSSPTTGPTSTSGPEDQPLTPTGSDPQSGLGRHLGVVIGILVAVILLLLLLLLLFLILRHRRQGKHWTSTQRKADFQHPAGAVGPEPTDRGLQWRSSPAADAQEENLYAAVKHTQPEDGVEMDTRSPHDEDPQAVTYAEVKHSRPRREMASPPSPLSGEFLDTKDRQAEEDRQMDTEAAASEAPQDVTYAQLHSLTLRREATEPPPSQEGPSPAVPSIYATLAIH
T7 sequence (Q6PI73 24-481): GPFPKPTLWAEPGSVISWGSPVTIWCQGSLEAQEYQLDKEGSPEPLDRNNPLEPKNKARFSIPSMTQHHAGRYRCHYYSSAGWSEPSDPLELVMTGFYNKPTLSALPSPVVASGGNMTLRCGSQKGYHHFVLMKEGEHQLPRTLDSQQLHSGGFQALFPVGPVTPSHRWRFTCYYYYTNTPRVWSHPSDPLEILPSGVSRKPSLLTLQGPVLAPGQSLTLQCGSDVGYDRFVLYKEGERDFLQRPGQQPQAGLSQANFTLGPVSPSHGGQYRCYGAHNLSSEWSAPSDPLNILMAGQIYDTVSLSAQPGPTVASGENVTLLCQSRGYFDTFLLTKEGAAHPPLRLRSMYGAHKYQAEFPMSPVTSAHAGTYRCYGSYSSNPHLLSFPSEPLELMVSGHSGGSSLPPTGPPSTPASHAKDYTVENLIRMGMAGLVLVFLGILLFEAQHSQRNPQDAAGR

Binder | MFI [1] [MFI] | binding result [2] | binding result [3] | binding result [4] | binding result [5] | binding result [6] | binding result [7] | binding result [8] | binding result [9] | binding result [10] | Bmax (MFI) [11] [MFI] | Bmax (MFI) [12] [MFI] | Bmax (MFI) [13] [MFI] | Bmax (MFI) [14] [MFI] | Bmax (MFI) [15] [MFI] | Bmax (MFI) [16] [MFI] | Bmax (MFI) [17] [MFI] | BMAX [gMFI] [18] [gMFI] | Bmax (MFI) [19] [MFI] | Bmax (MFI) [20] [MFI]
B2Comp1 (antibody, human IgG4 S228P, lambda, V domains shown, Benchmark antibody, IgG4 heavy chain and lambda light chain; biotin-conjugated when used as the labelled antibody in binning; also called MK-4830 (as designated in WO 2021/138079 A1); αLILRB2B2Comp1) VH: EVQLQQWGAGLLKPSETLSLTCAVYGGSFSGYYWSWIRQPPGKGLEWIGEINHAGSTNYNPSLKSRVTISVDTSKNQFSLKLSSVTAADTAVYYCARLPTRWVTTRYFDLWGRGTLVTVSS VL: ESVLTQPPSVSGAPGQRVTISCTGSSSNIGAGYDVHWYQQLPGTAPKLLIYGDSNRPSGVPDRFSVSKSGASASLAITGLQAEDEADYYCQSFDNSLSAYVFGGGTQLTVLG | 9630 | – | – | – | – | – | – | – | – | – | – | – | – | – | – | – | – | – | – | –
B2H1-52 (antibody, V domains shown, Humanized variant, human IgG1 / kappa) VH: EVQLLESGGGLVQPGTSLTLSCAASGFSLSTYAMSWVRQAPGKGLEWIGWIYNDGSTYYAAWAKGRFTISKDTSKTTLYLQITSLRAEDTATYFCAREGDYIGYFNIWGQGTLVTVSS VL: DVVMTQSPSSVSASLGDRVTITCQASQSIGSNLAWYQQKPGQAPKLLIYAAATLASGVPSRFKGSGSGTDFTLTITSLQPADFATYYCQSYVSGSSDVAFGGGTKVEIK | – | no binding | no binding | no binding | no binding | no binding | no binding | no binding | no binding | no binding | 153 | 42.3 | 123 | 855 | 10300 | 159 | 219 | 106 | 40.5 | 36.1
B2H1-35 (antibody, V domains shown, Humanized variant, human IgG1 / kappa) VH: QVQLVESGGRVVQPGTPLRLSCAASGFSLSTYAMSWVRQAPGKGLEWVAWIYNDGSTYYAAWAKGRFTISRDTSKNTLYLQTNSLKPDDTAVYYCAREGDYIGYFNIWGQGTLVTVSS VL: DVVMTQTPSSVSAALGGTVTIKCQASQSIGSNLAWYQLKPGQRPKLLIYAAATLASGGSSRFKGSGSGTDFTLTISSLEPADAATYYCQSYVSGSSDVAFGGGTEVVVK | – | no binding | no binding | no binding | no binding | no binding | no binding | no binding | no binding | no binding | 145 | 41.3 | 122 | 766 | 10300 | 146 | 202 | 103 | 38.5 | 33.6
B2H1-11 (antibody, V domains shown, Humanized variant, human IgG1 / kappa) VH: QVQLEESGGRVVQPGRSLRLSCAASGFSLSTYAMSWVRQAPGKGLEWIGWIYNDGSTYYAAWAKGRFTISKDTSKTTVFLQMNSLKPDDTATYFCAREGDYIGYFNIWGQGTLVTVSS VL: DIQMTQSPSSLSASVGDRVTITCQASQSIGSNLAWYQLKPGQRPKLLIYAAATLASGVPSRFKGSGSGTDFTLTISSLQSEDAATYYCQSYVSGSSDVAFGGGTEVVVK | – | no binding | no binding | no binding | no binding | no binding | no binding | no binding | no binding | no binding | 147 | 39.8 | 124 | 776 | 11000 | 142 | 210 | 108 | 38 | 36.1
